From patent EP4725966A1 (SHANGHAI RUOTUO BIOSCIENCES CO., LTD., dated 2024)
Where two headings read alike, the source gives them in different places.

Legend:
cynomolgus HER3-ECD-His [1] = biological target: T1, cynomolgus HER3-ECD-His (cynomolgus monkey, UniProt G7PIG5 20-643); assay: Octet (BLI)
T1 construct: extracellular domain; Bought protein (Sino Biological); also called Cyno HER3-ECD-His; Cyno HER3; not shown: His tag

human HER3-ECD-His [2] = biological target: T2, human HER3-ECD-His (human, UniProt P21860 20-643); assay: Octet (BLI)
T2 construct: extracellular domain; Fusion protein of the extracellular domain of human HER3 and a His tag; also called hHER3-ECD-His; human HER3 extracellular domain protein; not shown: His tag

cynomolgus HER3-ECD-His [3] = biological target: T1, cynomolgus HER3-ECD-His; assay: Octet (BLI); remark: listed apart in the source
human HER3-ECD-His [4] = biological target: T2, human HER3-ECD-His; assay: Octet (BLI); remark: listed apart in the source
Human HER2-ECD-His = biological target: T3, Human HER2-ECD-His (human, UniProt P04626 23-652); assay: ELISA on coated Human HER2-ECD-His, antibody 25 nM to 0.011 nM
T3 construct: extracellular domain; not shown: His tag

Human EGFR-ECD-His = biological target: T4, Human EGFR-ECD-His (human, UniProt P00533 25-645); assay: ELISA on coated Human EGFR-ECD-His, antibody 25 nM to 0.011 nM
T4 construct: extracellular domain; not shown: His tag

cynomolgus HER3-ECD-His [5] = biological target: T1, cynomolgus HER3-ECD-His; assay: Octet (BLI); remark: listed apart in the source
human HER3-ECD-His [6] = biological target: T2, human HER3-ECD-His; assay: Octet (BLI); remark: listed apart in the source
Human HER4-ECD-His = biological target: T5, Human HER4-ECD-His (human, UniProt Q15303 26-651); assay: ELISA on coated Human HER4-ECD-His, antibody 25 nM to 0.011 nM
T5 construct: extracellular domain; not shown: His tag
T5 sequence (looked up): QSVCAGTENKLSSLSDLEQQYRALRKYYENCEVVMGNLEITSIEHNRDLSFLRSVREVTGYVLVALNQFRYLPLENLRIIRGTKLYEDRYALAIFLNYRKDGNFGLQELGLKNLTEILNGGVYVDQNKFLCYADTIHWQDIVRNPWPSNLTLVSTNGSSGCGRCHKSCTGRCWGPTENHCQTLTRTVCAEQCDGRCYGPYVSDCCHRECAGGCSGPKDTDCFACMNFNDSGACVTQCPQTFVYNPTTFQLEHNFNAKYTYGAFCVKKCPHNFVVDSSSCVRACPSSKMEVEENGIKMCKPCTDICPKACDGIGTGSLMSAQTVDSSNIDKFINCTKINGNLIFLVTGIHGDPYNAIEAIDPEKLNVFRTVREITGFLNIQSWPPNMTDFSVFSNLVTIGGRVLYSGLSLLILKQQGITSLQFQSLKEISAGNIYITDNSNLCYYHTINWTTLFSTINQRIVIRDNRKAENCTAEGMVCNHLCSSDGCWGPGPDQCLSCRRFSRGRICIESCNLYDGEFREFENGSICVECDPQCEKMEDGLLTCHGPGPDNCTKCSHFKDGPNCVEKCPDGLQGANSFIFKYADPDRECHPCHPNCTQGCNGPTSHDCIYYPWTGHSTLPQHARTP

human HER3 on cells = biological target: T6, human HER3 on cells (human, UniProt P21860 20-1342); assay: fluorescence imaging of HER3-overexpressing A375 cells, 100 nM, 0 hour
T6 construct: whole, on cells; also called Human HER3-CHO; CHO cells overexpressing human HER3

[7] = biological target: T7, cynomolgus HER3 on CHO cells (cynomolgus monkey, UniProt G7PIG5 20-1342); assay: FACS on CHO cells overexpressing cynomolgus HER3
T7 construct: whole, on cells; also called CHO cells overexpressing cynomolgus HER3; CHO cells overexpressing cynomolgus monkey HER3
T7 sequence (G7PIG5 entry or part of it): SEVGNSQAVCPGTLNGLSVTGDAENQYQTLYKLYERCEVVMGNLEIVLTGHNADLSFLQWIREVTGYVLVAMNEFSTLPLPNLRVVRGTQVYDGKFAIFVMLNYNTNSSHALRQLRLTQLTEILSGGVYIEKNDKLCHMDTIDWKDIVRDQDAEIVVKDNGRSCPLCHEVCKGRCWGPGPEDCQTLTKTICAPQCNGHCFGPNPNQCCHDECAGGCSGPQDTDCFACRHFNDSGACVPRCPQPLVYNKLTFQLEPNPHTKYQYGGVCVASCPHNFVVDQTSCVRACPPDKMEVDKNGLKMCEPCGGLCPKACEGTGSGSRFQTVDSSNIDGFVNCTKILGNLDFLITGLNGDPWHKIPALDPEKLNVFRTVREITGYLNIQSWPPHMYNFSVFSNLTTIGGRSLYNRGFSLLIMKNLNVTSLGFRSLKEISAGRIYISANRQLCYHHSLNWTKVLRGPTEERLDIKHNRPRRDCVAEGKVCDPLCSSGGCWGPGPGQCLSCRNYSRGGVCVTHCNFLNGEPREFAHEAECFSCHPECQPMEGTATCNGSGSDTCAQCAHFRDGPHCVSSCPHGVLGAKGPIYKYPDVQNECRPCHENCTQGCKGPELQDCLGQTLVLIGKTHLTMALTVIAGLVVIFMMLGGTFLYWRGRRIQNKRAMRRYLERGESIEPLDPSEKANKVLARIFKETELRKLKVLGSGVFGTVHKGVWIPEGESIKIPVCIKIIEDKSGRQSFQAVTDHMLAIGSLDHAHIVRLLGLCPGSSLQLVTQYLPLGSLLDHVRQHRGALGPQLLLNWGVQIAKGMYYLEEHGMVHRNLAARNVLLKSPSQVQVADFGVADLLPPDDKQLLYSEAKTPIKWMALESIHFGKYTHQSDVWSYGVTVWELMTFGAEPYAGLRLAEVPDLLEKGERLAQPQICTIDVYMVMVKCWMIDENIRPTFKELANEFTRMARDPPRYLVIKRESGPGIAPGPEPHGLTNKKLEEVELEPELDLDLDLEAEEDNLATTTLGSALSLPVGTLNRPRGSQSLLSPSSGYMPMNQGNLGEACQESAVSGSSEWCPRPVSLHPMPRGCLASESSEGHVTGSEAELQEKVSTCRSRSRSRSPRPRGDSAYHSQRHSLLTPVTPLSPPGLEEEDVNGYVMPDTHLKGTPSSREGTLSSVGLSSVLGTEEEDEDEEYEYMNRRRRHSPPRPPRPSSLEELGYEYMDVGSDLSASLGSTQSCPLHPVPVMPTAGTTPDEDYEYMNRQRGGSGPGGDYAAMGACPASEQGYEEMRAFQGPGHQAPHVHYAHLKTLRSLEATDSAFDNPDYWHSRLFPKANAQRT

T1 sequence (G7PIG5 entry or part of it): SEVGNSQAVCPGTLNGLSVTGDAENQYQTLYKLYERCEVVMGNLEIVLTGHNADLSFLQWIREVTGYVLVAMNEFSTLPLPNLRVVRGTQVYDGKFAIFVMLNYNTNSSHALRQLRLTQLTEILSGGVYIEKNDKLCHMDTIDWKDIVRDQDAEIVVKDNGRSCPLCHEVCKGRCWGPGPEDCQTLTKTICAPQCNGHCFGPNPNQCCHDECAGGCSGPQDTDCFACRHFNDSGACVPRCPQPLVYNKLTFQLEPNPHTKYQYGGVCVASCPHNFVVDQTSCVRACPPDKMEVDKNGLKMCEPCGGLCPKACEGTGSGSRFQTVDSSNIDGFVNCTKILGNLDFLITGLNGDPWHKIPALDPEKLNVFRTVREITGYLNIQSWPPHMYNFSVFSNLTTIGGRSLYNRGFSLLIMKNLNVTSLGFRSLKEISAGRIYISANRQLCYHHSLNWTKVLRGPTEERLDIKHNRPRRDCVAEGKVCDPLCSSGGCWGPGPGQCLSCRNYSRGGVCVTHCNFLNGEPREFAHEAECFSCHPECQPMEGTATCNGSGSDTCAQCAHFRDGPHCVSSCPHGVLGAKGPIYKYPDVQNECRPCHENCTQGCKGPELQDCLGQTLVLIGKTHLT

Binder	Kd (cynomolgus HER3-ECD-His [1]) [nM]	koff (cynomolgus HER3-ECD-His [1]) [s⁻¹]	kon (cynomolgus HER3-ECD-His [1]) [M⁻¹ s⁻¹]	Kd (human HER3-ECD-His [2]) [nM]	koff (human HER3-ECD-His [2]) [s⁻¹]	kon (human HER3-ECD-His [2]) [M⁻¹ s⁻¹]	KD fold lower than patritumab (cynomolgus HER3-ECD-His [3]) [fold]	KD fold lower than patritumab (human HER3-ECD-His [4]) [fold]	binding result (Human HER2-ECD-His)	binding result (Human EGFR-ECD-His)	Kd (cynomolgus HER3-ECD-His [5]) [nM]	koff (cynomolgus HER3-ECD-His [5]) [s⁻¹]	kon (cynomolgus HER3-ECD-His [5]) [M⁻¹ s⁻¹]	Kd (human HER3-ECD-His [6]) [nM]	koff (human HER3-ECD-His [6]) [s⁻¹]	kon (human HER3-ECD-His [6]) [M⁻¹ s⁻¹]	binding result (Human HER4-ECD-His)	binding result (human HER3 on cells)	EC50 fold against patritumab [7] [fold]
cHE6-G1W (antibody, human IgG1, V domains shown, also called chimeric HE6 antibody; not shown: human IgG1 heavy chain constant region, GenBank AXN93653.1; human kappa light chain constant region, GenBank AWK57456.1) VH: EVQLQQSGPDLVKPGTSVKMSCKASGYTFTDYYMHWVRQSHGKSLEWIGYINPNNGDAIYNQKFKGKATLTVNKSSTTAYMALRSLTSEDSAVYFCATYDYGGDFYFDVWGTGTTVTVSS VL: DIELTQSPALMSASPGEKVTMTCSASSSVSYMYWYQQKPRSSPKPWIYLTSNLASGVPARFSGSGSGTSYSLTISSMEAEDAATYYCQQWSRNPLTFGAGTKLELKR	1.25	0.000706	565000	0.00114	5.11e-07	450000	–	–	–	–	–	–	–	–	–	–	–	–	–
cHE7-G1W (antibody, human IgG1, V domains shown, also called chimeric HE7 antibody; not shown: human IgG1 heavy chain constant region, GenBank AXN93653.1; human kappa light chain constant region, GenBank AWK57456.1) VH: EVQLQQSGPDLVKPGTSVKMSCKASGYTFTDYYMHWVRQSHGKSLEWIGYINPNNGDAIYNQKFKGKATLTVDKSSTTAYMALRSLTSEDSAVYFCATYDYGGDFYFDVWGTGTTVTVSS VL: DIELTQSPALMSASPGEKVTMTCSASSSVSYMYWYQQKPRSSPKPWIYLTSNLASGVPARFSGSGSGTSYSLTISSMEAEDAATYYCQQWSRNPLTFGAGTKLELKR	1.36	0.000912	672000	0.00131	5.57e-07	425000	–	–	–	–	–	–	–	–	–	–	–	–	–
hHE4-G1W (antibody, human IgG1, V domains shown, Humanized from cHE4-G1W; also called humanized HE4 antibody; not shown: human IgG1 heavy chain constant region; human light chain constant region) VH: QVQLVESGGGLVKPGGSLRLSCAASGFTFSSYVMSWVRQAPGKGLEWVATISDGDSSTYYADSVKGRFTISRDNAKNSLYLQMNSLRAEDTAVYYCARDKGHGYDEGAFVYWGQGTLVTVSS VL: DIQMTQSPSSLSASVGDRVTITCRASENIYSYLAWYQQKPGKAPKLLIYNAKTLAEGVPSRFSGSGSGTDFTLTISSLQPEDFATYYCQNHYGTPYTFGQGTKLEIKR	–	–	–	–	–	–	~10	~10	no binding (tested: 25 nM)	no binding (tested: 25 nM)	0.208	9.11e-05	439000	0.199	9.84e-05	495000	no binding (tested: 25 nM)	–	–
hHE4-G1W-DXd (antibody, V domains shown, maleimide-GGFG-DXd conjugated to cysteines of reduced interchain disulfide bonds; antibody-to-DXd ratio 1:8, not shown: human IgG1 heavy chain constant region; human light chain constant region) VH: QVQLVESGGGLVKPGGSLRLSCAASGFTFSSYVMSWVRQAPGKGLEWVATISDGDSSTYYADSVKGRFTISRDNAKNSLYLQMNSLRAEDTAVYYCARDKGHGYDEGAFVYWGQGTLVTVSS VL: DIQMTQSPSSLSASVGDRVTITCRASENIYSYLAWYQQKPGKAPKLLIYNAKTLAEGVPSRFSGSGSGTDFTLTISSLQPEDFATYYCQNHYGTPYTFGQGTKLEIKR	–	–	–	–	–	–	–	–	–	–	–	–	–	–	–	–	–	binds	–
cHE1-G1W (antibody, human IgG1, V domains shown, also called chimeric HE1 antibody; not shown: human IgG1 heavy chain constant region, GenBank AXN93653.1; human kappa light chain constant region, GenBank AWK57456.1) VH: EVKLQESGPGLVKPSQSLSLTCSVTGYSITSGYYWNWIRQFPGNKLEWMGYISYDGSNNYNPSLKNRISITRDTSKNQFFLNLNSVTTEDTATYYCARVDWDGDAMDYWGQGTSVTVSS VL: DIVLTQSPASLAVSLGQRATISCRASESVDNYGIRLMHWYQQKSGQPPKLLIHRASNLESGIPARFSGSGSRTDFTLTINPVETDDVATYYCQQSNKDPFTFGSGTKLEIKR	4.01	0.0017	423000	4.88	0.00356	728000	–	–	–	–	–	–	–	–	–	–	–	–	–
cHE5-G1W (antibody, human IgG1, V domains shown, also called chimeric HE5 antibody; not shown: human IgG1 heavy chain constant region, GenBank AXN93653.1; human kappa light chain constant region, GenBank AWK57456.1) VH: EVQLQESGPGLVKPSQSLSLTCSVTGYSITSGYYWNWIRQFPGNKLEWMGYISYDGSNNYNPSLKNRISITRDTSKNQFFLKLNSVTTEDTATYYCASYDYDGDWFAYWGQGTLVTVSA VL: DIVLTQSPASLAVSLGQRATISCRASESVDHYGSSFMHWYQQKPGQPPKLLIYRASNPESGIPARFSGSGSRTDFTLTINPVETDDVATYYCQQSNKDPPTFGGGTKLEIKR	3.58	0.00154	429000	3.56	0.00253	710000	–	–	–	–	–	–	–	–	–	–	–	–	–
cHE2-G1W (antibody, human IgG1, V domains shown, also called chimeric HE2 antibody; not shown: human IgG1 heavy chain constant region, GenBank AXN93653.1; human kappa light chain constant region, GenBank AWK57456.1) VH: EVKLQESGPGLVKPSQSLSLTCSVTGYSITSGYYWNWIRQFPGNKLEWMGYISYDGSNNYNPSLKNRISITRDTSKNQFFLKLNSVTTEDTATYYCARMDWDGDAMDYWGQGTSVTVSS VL: DIVLTQSPASLAVSLGQRATISCRASESVDNYGISLMHWYQQKPGQPPKLLIYRASNLESGIPARFSGSGSRTDFTLTINPVETDDVATYYCQQSNKDPPTFGAGTKLELKR	3.25	0.00165	507000	3.57	0.00308	861000	–	–	–	–	–	–	–	–	–	–	–	–	–
patritumab (antibody, V domains shown) VH: QVQLQQWGAGLLKPSETLSLTCAVYGGSFSGYYWSWIRQPPGKGLEWIGEINHSGSTNYNPSLKSRVTISVETSKNQFSLKLSSVTAADTAVYYCARDKWTWYFDLWGRGTLVTVSS VL: not shown	2.34	0.000306	131000	0.869	0.000224	258000	–	–	–	–	1.92	0.000371	194000	1.33	0.000296	222000	–	–	–
cHE4-G1W (antibody, human IgG1, V domains shown, also called chimeric HE4 antibody; cHE4-G1W4; not shown: human IgG1 heavy chain constant region, GenBank AXN93653.1; human kappa light chain constant region, GenBank AWK57456.1) VH: EVQLVESGGGLVKPGGSLKLSCAASGFTFSSYVMSWVRQTPEKRLEWVATISDGDSSTYYPDNVKGRFTISRDNAKNNLFLQMSHLKSEDTAMYFCARDKGHGYDEGAFVYWGQGTLVTVSA VL: DIQMTQSPASLSASVEETVTITCRASENIYSYLAWYQQKQGKSPQLLVYNAKTLAEGVPSRFSGSGSGTEFSLKINSLQPEDFGSYYCQNHYGTPYTFGGGTKLEIKQ	0.31	0.000116	374000	0.409	0.000234	573000	–	–	–	–	0.227	9.63e-05	425000	0.233	0.000112	482000	–	–	2
